Numbered stars: 1 amine (or outer) side, 2 acyl side, 3 side chain; on linkers, the order of the positions; unused ones are H or OH. Bridge positions count the residues as written; N and C are the ends. Square brackets hold non-standard residues; d marks the D form. Ends that are not written are not given here. TTDS = 1,13-diamino-4,7,10-trioxatridecan-succinamic acid, O=C(CCC(=O)[*:2])NCCCOCCOCCOCCCN[*:1]; Pro(cis-4-CF3) = O=C(O)[C@@H]1C[C@H](C(F)(F)F)CN1; Oic = O=C(O)[C@@H]1C[C@@H]2CCCC[C@@H]2N1; NMeI = CC[C@H](C)[C@H](NC)C(=O)O; tBuAla = CC(C)(C)C[C@H](N)C(=O)O; PEG4 = NCCOCCOCCOCCOCCC(=O)O; Pen = CC(C)(S)[C@H](N)C(=O)O; NMeC = CN[C@@H](CS)C(=O)O; NMeA = CN[C@@H](C)C(=O)O; Sar = CNCC(=O)O
T1: recombinant human MASP1 active protease (amino acids 297-699, C-terminal His Tag) (human, UniProt P48740 297-699)
T1 sequence: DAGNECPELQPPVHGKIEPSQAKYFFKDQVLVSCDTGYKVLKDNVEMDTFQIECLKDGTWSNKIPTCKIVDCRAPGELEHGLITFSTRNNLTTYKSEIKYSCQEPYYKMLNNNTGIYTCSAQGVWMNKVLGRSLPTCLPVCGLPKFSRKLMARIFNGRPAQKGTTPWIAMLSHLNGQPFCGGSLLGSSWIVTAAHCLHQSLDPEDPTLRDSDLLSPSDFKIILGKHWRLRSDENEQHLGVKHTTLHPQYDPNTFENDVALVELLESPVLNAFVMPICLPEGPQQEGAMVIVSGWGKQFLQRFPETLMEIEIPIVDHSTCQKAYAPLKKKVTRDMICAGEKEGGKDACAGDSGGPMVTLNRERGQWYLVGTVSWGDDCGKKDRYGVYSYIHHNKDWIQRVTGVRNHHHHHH


Tests used:
[1] = target: T1, recombinant human MASP1 active protease …; assay: cell-based or functional assay
[2] = target: recombinant human MASP2 active protease (amino acids 297-686, C-terminal His Tag) (human, UniProt O00187 297-686); assay: cell-based or functional assay
Chain of recombinant human MASP2 active protease (amino acids 297-686, C-terminal His Tag) (O00187 other isoform, or with tags, fused parts or gaps limits assumed): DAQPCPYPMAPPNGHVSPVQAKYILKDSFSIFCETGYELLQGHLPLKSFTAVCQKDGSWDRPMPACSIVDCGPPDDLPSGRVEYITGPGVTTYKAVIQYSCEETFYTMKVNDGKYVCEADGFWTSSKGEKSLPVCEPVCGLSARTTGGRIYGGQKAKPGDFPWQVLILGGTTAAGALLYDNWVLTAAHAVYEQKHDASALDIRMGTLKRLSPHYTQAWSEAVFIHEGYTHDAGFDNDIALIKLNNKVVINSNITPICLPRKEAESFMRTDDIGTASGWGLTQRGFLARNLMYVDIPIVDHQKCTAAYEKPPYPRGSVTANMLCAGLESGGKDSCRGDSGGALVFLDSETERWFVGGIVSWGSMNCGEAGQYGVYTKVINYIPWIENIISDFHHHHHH

Binder	human MASP1 IC50 [1] [nM]	human MASP2 IC50 [2] [nM]
A[NMeI]CSRS[tBuAla]PPI[NMeC]IPD-NH2 (disulfide 3-11; N-terminus assumed; SMILES CC[C@H](C)[C@@H]1NC(=O)[C@@H]2CCCN2C(=O)[C@@H]2CCCN2C(=O)[C@H](CC(C)(C)C)NC(=O)[C@H](CO)NC(=O)[C@H](CCCNC(=N)N)NC(=O)[C@H](CO)NC(=O)[C@@H](NC(=O)[C@H]([C@@H](C)CC)N(C)C(=O)[C@H](C)N)CSSC[C@@H](C(=O)N[C@H](C(=O)N2CCC[C@H]2C(=O)N[C@@H](CC(=O)O)C(N)=O)[C@@H](C)CC)N(C)C1=O) [A-((N-Me)I)-C+SRS-((tBu)A)-PPI-((N-Me)C)+IPD-NH2]	1.2	620
[Sar]ICSRSLP[Oic]I[Pen]IP[TTDS]-NH2 (disulfide 3-11; N-terminus assumed; SMILES CC[C@H](C)[C@H](NC(=O)CNC)C(=O)N[C@H]1CSSC(C)(C)[C@@H](C(=O)N[C@H](C(=O)N2CCC[C@H]2C(=O)NCCCOCCOCCOCCCNC(=O)CCC(N)=O)[C@@H](C)CC)NC(=O)[C@H]([C@@H](C)CC)NC(=O)[C@@H]2C[C@@H]3CCCC[C@@H]3N2C(=O)[C@@H]2CCCN2C(=O)[C@H](CC(C)C)NC(=O)[C@H](CO)NC(=O)[C@H](CCCNC(=N)N)NC(=O)[C@H](CO)NC1=O) [((N-Me)G)-IC+SRSLP-(Oic)-I-(Pen)+IP-(TTDS)-NH2]	3.4	87
[2‑(Piperidin)acetyl]ICSRS[tBuAla]PPI[Pen]IPD-NH2 (disulfide 3-11) [(2-(Piperidin)acetyl)-IC+SRS-((tBu)A)-PPI-(Pen)+IPD-NH2]	3.3	71
[NMeA]ICSRS[tBuAla]PPI[Pen]IP-NH2 (disulfide 3-11; N-terminus assumed; SMILES CC[C@H](C)[C@H](NC(=O)[C@H](C)NC)C(=O)N[C@H]1CSSC(C)(C)[C@@H](C(=O)N[C@H](C(=O)N2CCC[C@H]2C(N)=O)[C@@H](C)CC)NC(=O)[C@H]([C@@H](C)CC)NC(=O)[C@@H]2CCCN2C(=O)[C@@H]2CCCN2C(=O)[C@H](CC(C)(C)C)NC(=O)[C@H](CO)NC(=O)[C@H](CCCNC(=N)N)NC(=O)[C@H](CO)NC1=O) [((N-Me)A)-IC+SRS-((tBu)A)-PPI-(Pen)+IP-NH2]	3.2	24
[NMeA]ICSRSLP[Oic]I[Pen]I-OH (disulfide 3-11; N-terminus assumed; SMILES CC[C@H](C)[C@H](NC(=O)[C@H]1NC(=O)[C@H]([C@@H](C)CC)NC(=O)[C@@H]2C[C@@H]3CCCC[C@@H]3N2C(=O)[C@@H]2CCCN2C(=O)[C@H](CC(C)C)NC(=O)[C@H](CO)NC(=O)[C@H](CCCNC(=N)N)NC(=O)[C@H](CO)NC(=O)[C@@H](NC(=O)[C@@H](NC(=O)[C@H](C)NC)[C@@H](C)CC)CSSC1(C)C)C(=O)O) [((N-Me)A)-IC+SRSLP-(Oic)-I-(Pen)+I-OH]	3.4	410
AICSRSLP[Oic]I[Pen]IPE-OH (disulfide 3-11; N-terminus assumed; SMILES CC[C@H](C)[C@H](NC(=O)[C@H](C)N)C(=O)N[C@H]1CSSC(C)(C)[C@@H](C(=O)N[C@H](C(=O)N2CCC[C@H]2C(=O)N[C@@H](CCC(=O)O)C(=O)O)[C@@H](C)CC)NC(=O)[C@H]([C@@H](C)CC)NC(=O)[C@@H]2C[C@@H]3CCCC[C@@H]3N2C(=O)[C@@H]2CCCN2C(=O)[C@H](CC(C)C)NC(=O)[C@H](CO)NC(=O)[C@H](CCCNC(=N)N)NC(=O)[C@H](CO)NC1=O) [AIC+SRSLP-(Oic)-I-(Pen)+IPE-OH]	3.5	140
AICSRS[tBuAla]P[Pro(cis-4-CF3)]I[NMeC]IPD-NH2 (disulfide 3-11; N-terminus assumed; SMILES CC[C@H](C)[C@H](NC(=O)[C@H](C)N)C(=O)N[C@H]1CSSC[C@@H](C(=O)N[C@H](C(=O)N2CCC[C@H]2C(=O)N[C@@H](CC(=O)O)C(N)=O)[C@@H](C)CC)N(C)C(=O)[C@H]([C@@H](C)CC)NC(=O)[C@@H]2C[C@H](C(F)(F)F)CN2C(=O)[C@@H]2CCCN2C(=O)[C@H](CC(C)(C)C)NC(=O)[C@H](CO)NC(=O)[C@H](CCCNC(=N)N)NC(=O)[C@H](CO)NC1=O) [AIC+SRS-((tBu)A)-P-((4-CF3)P)-I-((N-Me)C)+IPD-NH2]	3.2	1600
[Sar]ICSRSLP[Oic]I[Pen]IP[PEG4]-NH2 (disulfide 3-11; N-terminus assumed; SMILES CC[C@H](C)[C@H](NC(=O)CNC)C(=O)N[C@H]1CSSC(C)(C)[C@@H](C(=O)N[C@H](C(=O)N2CCC[C@H]2C(=O)NCCOCCOCCOCCOCCC(N)=O)[C@@H](C)CC)NC(=O)[C@H]([C@@H](C)CC)NC(=O)[C@@H]2C[C@@H]3CCCC[C@@H]3N2C(=O)[C@@H]2CCCN2C(=O)[C@H](CC(C)C)NC(=O)[C@H](CO)NC(=O)[C@H](CCCNC(=N)N)NC(=O)[C@H](CO)NC1=O) [((N-Me)G)-IC+SRSLP-(Oic)-I-(Pen)+IP-(PEG3(16 atoms))-NH2]	3.2	79
[NMeA]ICSRSLP[Oic]I[Pen]IP-NH2 (disulfide 3-11; N-terminus assumed; SMILES CC[C@H](C)[C@H](NC(=O)[C@H](C)NC)C(=O)N[C@H]1CSSC(C)(C)[C@@H](C(=O)N[C@H](C(=O)N2CCC[C@H]2C(N)=O)[C@@H](C)CC)NC(=O)[C@H]([C@@H](C)CC)NC(=O)[C@@H]2C[C@@H]3CCCC[C@@H]3N2C(=O)[C@@H]2CCCN2C(=O)[C@H](CC(C)C)NC(=O)[C@H](CO)NC(=O)[C@H](CCCNC(=N)N)NC(=O)[C@H](CO)NC1=O) [((N-Me)A)-IC+SRSLP-(Oic)-I-(Pen)+IP-NH2]	3.4	99
[NMeA]ICSRSLP[Oic]I[Pen]IPE-NH2 (disulfide 3-11; N-terminus assumed; SMILES CC[C@H](C)[C@H](NC(=O)[C@H](C)NC)C(=O)N[C@H]1CSSC(C)(C)[C@@H](C(=O)N[C@H](C(=O)N2CCC[C@H]2C(=O)N[C@@H](CCC(=O)O)C(N)=O)[C@@H](C)CC)NC(=O)[C@H]([C@@H](C)CC)NC(=O)[C@@H]2C[C@@H]3CCCC[C@@H]3N2C(=O)[C@@H]2CCCN2C(=O)[C@H](CC(C)C)NC(=O)[C@H](CO)NC(=O)[C@H](CCCNC(=N)N)NC(=O)[C@H](CO)NC1=O) [((N-Me)A)-IC+SRSLP-(Oic)-I-(Pen)+IPE-NH2]	3.3	200
[2‑(Diethylamino)acetyl]ICSRS[tBuAla]PPI[Pen]IPD-NH2 (disulfide 3-11) [(2-(Diethylamino)acetyl)-IC+SRS-((tBu)A)-PPI-(Pen)+IPD-NH2]	3.5	98
AICSRSLP[Oic]I[Pen]IPQ-NH2 (disulfide 3-11; N-terminus assumed; SMILES CC[C@H](C)[C@H](NC(=O)[C@H](C)N)C(=O)N[C@H]1CSSC(C)(C)[C@@H](C(=O)N[C@H](C(=O)N2CCC[C@H]2C(=O)N[C@@H](CCC(N)=O)C(N)=O)[C@@H](C)CC)NC(=O)[C@H]([C@@H](C)CC)NC(=O)[C@@H]2C[C@@H]3CCCC[C@@H]3N2C(=O)[C@@H]2CCCN2C(=O)[C@H](CC(C)C)NC(=O)[C@H](CO)NC(=O)[C@H](CCCNC(=N)N)NC(=O)[C@H](CO)NC1=O) [AIC+SRSLP-(Oic)-I-(Pen)+IPQ-NH2]	3.3	140

Source: patent publication US20210246166A1 (Bayer, published 2021)
